# Measurements as given in patent US20250179196A1 (Janssen / Centocor, published 2025).
# T1: Recombinant human IL-23 receptor (IL-23R) extracellular domain (ECD) protein (human, UniProt Q5VWK5 24-355)
# T1 construct: also called human IL-23R ECD; hu IL-23R ECD
# T1 sequence: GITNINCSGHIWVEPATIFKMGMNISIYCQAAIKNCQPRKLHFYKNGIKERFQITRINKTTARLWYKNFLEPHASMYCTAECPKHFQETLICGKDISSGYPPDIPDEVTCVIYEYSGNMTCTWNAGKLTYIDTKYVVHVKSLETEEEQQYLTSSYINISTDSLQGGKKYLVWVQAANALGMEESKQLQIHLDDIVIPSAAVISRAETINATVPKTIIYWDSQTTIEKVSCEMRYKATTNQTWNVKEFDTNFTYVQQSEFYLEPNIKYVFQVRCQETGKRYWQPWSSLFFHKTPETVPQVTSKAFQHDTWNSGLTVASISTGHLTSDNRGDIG
# T2: rat IL-23R extracellular domain (ECD) protein (rat)
# T2 construct: also called rat IL-23R ECD; F1LX96 amino acids 24-354
# T2 chain: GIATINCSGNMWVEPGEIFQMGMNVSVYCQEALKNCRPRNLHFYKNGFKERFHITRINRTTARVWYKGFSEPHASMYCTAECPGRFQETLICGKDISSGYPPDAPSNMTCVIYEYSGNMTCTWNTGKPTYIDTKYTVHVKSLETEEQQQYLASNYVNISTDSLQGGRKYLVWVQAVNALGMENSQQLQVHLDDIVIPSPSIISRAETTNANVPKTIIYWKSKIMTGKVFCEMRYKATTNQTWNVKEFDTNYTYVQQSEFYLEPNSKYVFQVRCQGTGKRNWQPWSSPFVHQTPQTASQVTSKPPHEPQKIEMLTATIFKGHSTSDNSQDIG
# B1: I23RB47 (antibody, mouse IgG2a, kappa, V domains shown)
# VH: QVQLKESGPGLVAPSQSLSITCTVSGFSLTNYDIHWVRQSPGKGLEWLGVIWSDGRTDYKGAFISRLSISKDNSKSQVFFKMNSLQADDTAIYYCARNNYYRYGRNTMDYWGQGTSVTVSS
# VL: DIVLTQSPASQSASLGESVTITCLASQTIGSWLAWYQQKPGKSPQLLIYAATRLADGVPSRFSGSGSGTKFSFKISSLQAEDFVFYYCHQLYSIPLTFGGGTKLEMKR
# notes: mouse immunization; mouse IgG2a/kappa
# B2: I23RB1 (antibody, mouse IgG2a, kappa, V domains shown)
# VH: QVQLVQSGAEVKKPGSSVKVSCKASGGTFKNYAISWVRQAPGQGLEWMGWIRPIFGTAYYAQKFQGRVTITADESTSTAYMELSSLRSEDTAVYYCARDSGSRYAGRYAFDYWGQGTLVTVSS
# VL: EIVLTQSPATLSLSPGERATLSCRASQSVSSYLAWYQQKPGQAPRLLIYDASNRATGIPARFSGSGSGTDFTLTISSLEPEDFAVYYCQQRSNWPLTFGQGTKVEIKR
# notes: phage display; human V regions, mouse IgG2a/kappa constant regions
# B3: I23RB7 (antibody, mouse IgG2a, kappa, V domains shown)
# VH: QIQLVQSGPELKKPGETVKISCKASGYTFTTYGMSWVKQAPGKGLKWMGWINTYSGVPTYADDFKGRFAFSLETSASTAYLQINNLKNEDTATYYCARRDRYGYVAGAFAYWGQGTLVTVSS
# VL: QIVLTQSPAIMSASPGEKVTMTCSASSSVSYMYWYQQKPGSSPRLLIYDTSNLASGVPVRFSGSGSGTSYSLTISRMEAEDAATYYCQQWSSYPWTFGGGTKLEIKR
# notes: phage display (mouse library); mouse antibody, mouse IgG2a/kappa
# B4: I23RB33 (antibody, mouse IgG2a, kappa, V domains shown)
# VH: EVQLQQSGAELVKPGASVKLSCTASGFNIRDIYIHWVKQRPEQGLEWIGRIDPANGHSIYAAKFQGKATITADTSLNIAYMQLSSLTSGDTAVYYCARGSDNDYGRVLAYWGLGTSVTVSS
# VL: DIVLTQSPAIMSASPGEKVTMTCRASSSVRSSYLHWYQQKSGASPKLWIYSTSNLASGVPARFSGSGSGTSYSLTITSVEAEDAATYYCQQYTGNPIFTFGSGTKLELKR
# notes: as for B1
# B5: I23RB35 (antibody, mouse IgG2a, kappa, V domains shown)
# VH: DVQLQESGPGLVKPSQSLSLTCSVTGYSITSGHNWNWIRQFPGNKLEWLGYISYDGSNNYDPSLKNRISITRDTSKNQFFLKLNSVTTEDTATYYCARGGGYFGNSYRVFASWGQGTTVTVSS
# VL: DIVLTQSPASLAVSLGQRATISCRASESVDSYGNSFMHWYQQKPGQPPKLLIYRASNLESEIPARFSGRGSGTDFTLTINPVEADDVATYYCQQSNADPYTFGGGTKLEIKR
# notes: as for B1
# B6: I23RB32 (antibody, mouse IgG2a, kappa, V domains shown)
# VH: EFQLQQSGPELVKPGASVKLSCKASGYTFTDYALHWVKQSPGQGLEWIGWIYPGGGNTYYNDKFKGKATMTADKSSSTAYMQLSSLTSEDSAVYFCARGRLRRDYPMDYWGQGTSVTVSS
# VL: DIVMTQSPSSLTVTAGEKVTMSCKSSQSLLNSGNQKNYLTWYQQKPGQPPKLLIYWASTRESGVPDRFTGSGSGTDFTLTISSVQAEDLAVYYCQNDYTYPLTFGSGTKLEIKR
# notes: as for B1
# B7: I23RB101 (antibody, mouse IgG2a, kappa, V domains shown)
# VH: EVQLQQSGAEVKKPGSSVKVSCKASGGTFSSYAISWVRQAPGQGLEWMGWINPNSGGTNYAQKFQGRVTMTRDTSISTAYMELSRLRSDDTAVYYCARGYRYGPLDGFDIWGQGTTLTVSS
# VL: DIVMTQSHKFMSTSIGDRVSITCKTSQDVRTAVAWYQQKPGQSPKLLIYSASYRYIGVPDRFTGSGSGTDFTFTISDVQAEDLALYYCQQHYSTPYTFGGGTKLEIKR
# notes: as for B1
# Target: T1, Recombinant human IL-23 receptor …
# Assay: SPR Biacore 8K, supernatant, analysis 1
# Summary of the method: (§1)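 Antibodies (~150 RU) were captured and human or rat IL-23R ECD injected at 0.8–500 nM in 5-fold steps, at 25 °C in HBS-P+ with 100 μg/ml BSA. Association ran 3 min at 50 μL/min, followed by 30 min dissociation. Ka, Kd and KD came from a Langmuir 1:1 fit.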
Binder,Kd,koff,kon
B1,< 0.051 nM,< 2.89e-05 s⁻¹,566000 M⁻¹ s⁻¹

# Target: T1, Recombinant human IL-23 receptor …
# Assay: SPR Biacore 8K, supernatant, analysis 2
# Summary of the method: as §1
Binder,Kd,koff,kon
B2,2.62 nM,0.000982 s⁻¹,376000 M⁻¹ s⁻¹
B3,1.23 nM,0.000247 s⁻¹,200000 M⁻¹ s⁻¹
B4,0.218 nM,0.000146 s⁻¹,672000 M⁻¹ s⁻¹
B1,0.119 nM,5.32e-05 s⁻¹,445000 M⁻¹ s⁻¹
B5,< 0.0777 nM,< 2.89e-05 s⁻¹,372000 M⁻¹ s⁻¹

# Target: T1, Recombinant human IL-23 receptor …
# Assay: SPR ProteOn, purified
# Procedure: Affinity by SPR using ProteOn. Affinity measurements using Surface Plasmon Resonance (SPR) were performed using a ProteOn XPR36 system (BioRad). […] Approximately 6000 RU (response units) of mAbs were immobilized. The kinetic experiments were performed at 25° C. in running buffer (DPBS+0.01% P20+100 μg/ml BSA). […] The association phase was monitored for 3 minutes at 50 μL/min, then followed by 10 minutes of buffer flow (dissociation phase). The chip surface was regenerated with two 18 second pulses of 100 mM H3PO4 (Sigma, Cat #7961) at 100 μL/min. The collected data were processed using ProteOn Manager software. First, the data was corrected for background using inter-spots. Then, double reference subtraction of the data was performed by using the buffer injection for analyte injections. The kinetic analysis of the data was performed using a Langmuir 1:1 binding model. The result for each mAb was reported in the format of Ka (On-rate), Kd (Off-rate) and KD (equilibrium dissociation constant).
Binder,Kd,koff,kon
B2,0.667 nM,0.00229 s⁻¹,3.45e+06 M⁻¹ s⁻¹
B3,0.39 nM,0.000226 s⁻¹,581000 M⁻¹ s⁻¹

# Target: T1, Recombinant human IL-23 receptor …
# Assay: SPR Biacore 8K, purified, analysis 1
# Procedure: (§2) Affinity by SPR using Biacore 8K. Affinity measurements using Surface Plasmon Resonance (SPR) were performed using a Biacore 8K system (Cytiva). […] Approximately 9000-10000 RU (response units) of mAbs were immobilized. The kinetic experiments were performed at 25° C. in running buffer 1× of (HBS-P+ Buffer 10× (Cytiva #BR100671)+100 μg/ml BSA). To perform kinetic experiments, approximately 150 RU of mAbs were captured followed by injections of human IL-23R or rat IL-23R at concentrations ranging from 0.8 nM to 500 nM (in a 5-fold serial dilution). The association phase was monitored for 3 minutes at 50 μL/min, then followed by 30 minutes of buffer flow (dissociation phase). […] The collected data were processed using Biacore insight Evaluation software (Version 3.0.12.15655). The kinetic analysis of the data was performed using a Langmuir 1:1 binding model. The result for each mAb was reported in the format of Ka (On-rate), Kd (Off-rate) and KD (equilibrium dissociation constant).
Binder,Kd,koff,kon
B2,2.8 nM,0.00111 s⁻¹,399000 M⁻¹ s⁻¹
B4,0.162 nM,0.000155 s⁻¹,957000 M⁻¹ s⁻¹
B5,< 0.0527 nM,< 2.89e-05 s⁻¹,549000 M⁻¹ s⁻¹
B6,0.332 nM,0.000182 s⁻¹,550000 M⁻¹ s⁻¹

# Target: T2, rat IL-23R extracellular domain (ECD) …
# Assay: SPR Biacore 8K, purified
# Procedure: as §2
Binder,binding result,Kd,koff,kon
B2,no binding (tested: 500 nM),,,
B3,,524 nM,0.0127 s⁻¹,24200 M⁻¹ s⁻¹
B4,no binding (tested: 500 nM),,,
B1,no binding (tested: 500 nM),,,
B5,no binding (tested: 500 nM),,,
B6,no binding (tested: 500 nM),,,
B7,no binding (tested: 500 nM),,,

# Target: T1, Recombinant human IL-23 receptor …
# Assay: SPR Biacore 8K, purified, analysis 2
# Procedure: as §2
Binder,Kd,koff,kon
B3,1.23 nM,0.000246 s⁻¹,199000 M⁻¹ s⁻¹
B4,0.216 nM,0.000149 s⁻¹,691000 M⁻¹ s⁻¹
B1,0.114 nM,5.17e-05 s⁻¹,453000 M⁻¹ s⁻¹
B5,< 0.0687 nM,< 2.89e-05 s⁻¹,421000 M⁻¹ s⁻¹
B6,0.34 nM,0.000172 s⁻¹,506000 M⁻¹ s⁻¹
